From patent publication US8785384B2, “Peptide synthesis” (Chemical & Biopharmaceutical Laboratories of Patras, priority 2010, dated 2014)
Where no end group is shown, it is not given here. [ ]: non-standard residue; d: D form. Met(O) = CS(=O)CC[C@H](N)C(=O)O

What was measured:
[1] = background statement on earlier attempts at synthetic human relaxins; cited from earlier work
[2] = Solubility of relaxin B-chains (methionine sulphoxide vs non-oxidised); assay type: physicochemical, human; conditions: compared with RLX1B and RLX2B respectively / non-oxidised analogue

| Substance | solubility of non-oxidised B-chain [1] | solubility relative to the corresponding non-oxidised B-chain [2] |
| --- | --- | --- |
| RLX1B: Chain B of human relaxin-1, SEQ ID NO: 3 (KWKDDVIKLCGRELVRAQIAICGMSTWS; listed as Homo sapiens) | highly insoluble or hydrophobic | – |
| RLX2B: Chain B of human relaxin-2, SEQ ID NO: 5 | highly insoluble or hydrophobic | – |
| Met(O)^24-RLX1B: Met(O)^24-human relaxin 1 B-chain, SEQ ID NO: 6; linear (compound 9) or cyclic (compound 10) form not specified (KWKDDVIKLCGRELVRAQIAICG[Met(O)]STWS; not fully specified; cysteine pairing not given here; listed as Homo sapiens) | – | higher solubility |
| Met(O)^25-RLX2B: Met(O)^25-human relaxin 2 B-chain, SEQ ID NO: 7; linear (compound 13) or cyclic (compound 14) form not specified | – | higher solubility |
